Measurements taken from patent US20150274820A1 (ESBATECH AN ALCON BIOMEDICAL RESEARCH UNIT, published 2015).

T1: recombinant human PLGF (human, UniProt P49763-2 19-149, limits assumed)
T1 construct: Negative control; also called PIGF
T1 sequence (looked up): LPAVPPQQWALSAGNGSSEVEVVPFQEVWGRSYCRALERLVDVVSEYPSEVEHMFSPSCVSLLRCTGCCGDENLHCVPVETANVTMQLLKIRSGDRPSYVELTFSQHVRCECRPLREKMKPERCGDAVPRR

T2: recombinant human VEGF121 (human, UniProt P15692 27-147)
T2 construct: mature; Isoform VEGF121 of the entry; also called hVEGF121
T2 sequence (looked up): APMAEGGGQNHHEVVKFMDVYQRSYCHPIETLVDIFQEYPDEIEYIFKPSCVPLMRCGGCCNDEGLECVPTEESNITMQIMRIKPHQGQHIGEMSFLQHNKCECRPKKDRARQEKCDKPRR

T3: recombinant human VEGF110 (human, UniProt P15692-4 27-136, limits assumed)
T3 construct: Made in house; also called hVEGF110
T3 sequence (looked up): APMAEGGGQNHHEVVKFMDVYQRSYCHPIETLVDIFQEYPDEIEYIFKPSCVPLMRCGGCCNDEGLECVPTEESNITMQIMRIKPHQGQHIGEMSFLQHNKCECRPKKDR


Experiments:
[1] = molecular target: T4, recombinant human VEGF165 (human, UniProt P15692 27-191); assay: cell-based or functional assay
Target sequence in this assay (P15692 other isoform, or with tags, fused parts or gaps): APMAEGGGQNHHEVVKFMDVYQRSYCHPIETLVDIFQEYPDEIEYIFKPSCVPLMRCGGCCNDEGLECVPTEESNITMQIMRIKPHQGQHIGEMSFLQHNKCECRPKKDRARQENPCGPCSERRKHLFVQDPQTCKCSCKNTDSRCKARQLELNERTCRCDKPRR

[2] = molecular target: recombinant murine VEGF164 (mouse) (UniProt Q00731); assay: Biacore SPR, VEGF immobilized, pH 5
[3] = molecular target: recombinant rat VEGF164 (rat) (UniProt P16612); assay: Biacore SPR, VEGF immobilized, pH 5
[4] = molecular target: T4, recombinant human VEGF165; assay: Biacore SPR, VEGF immobilized, pH 5
Experimental: (§1) In this example, the Biacore-binding ability of scFvs was tested and the binding affinity was measured using the exemplary surface plasmon resonance method with BIAcore™-T100. The VEGF proteins, tested for binding by these scFv candidates, in this example and later examples include purified Escherichia coli-expressed recombinant human VEGF₁₆₅ (PeproTech EC Ltd.), recombinant human VEGF₁₂₁ (PeproTech EC Ltd.), recombinant human VEGF₁₁₀ (ESBATech AG), recombinant murine VEGF₁₆₄ (PeproTech EC Ltd.), recombinant rat VEGF₁₆₄ (Biovision), recombinant rabbit VEGF₁₁₀ (ESBATech AG), and recombinant human PLGF (PeproTech EC Ltd.). For the surface plasmon resonance experiment, carboxymethylated dextran biosensor chips (CM4, GE Healthcare) were activated with N-ethyl-N′-(3-dimethylaminopropyl) carbodiimide hydrochloride and N-hydroxysuccinimide according to the supplier's instructions. Each of the 6 different VEGF forms, as exemplified above, was coupled to 1 of the 4 different flow cells on a CM4 sensor chip using a standard amine-coupling procedure. […] The 4th flow cell of each chip was treated similarly except no proteins were immobilized prior to blocking, and the flow cell was used as in-line reference. […] Dissociation of the anti-VEGF scFv from the VEGF on the CM4 chip was allowed to proceed for 10 min at 25° C. Sensorgrams were generated for each anti-VEGF scFv sample after in-line reference cell correction followed by buffer sample subtraction. The apparent dissociation rate constant (kd), the apparent association rate constant (kₐ) and the apparent dissociation equilibrium constant (KD) were calculated using one-to-one Langmuir binding model with BIAcore T100 evaluation Software version 1.1.
Target sequence in this assay (P15692 other isoform, or with tags, fused parts or gaps): as above

recombinant human PLGF = molecular target: T1, recombinant human PLGF; assay: Biacore SPR, PlGF immobilized, pH 5
Experimental: as §1

[5] = molecular target: T4, recombinant human VEGF165; assay: Biacore SPR, VEGF immobilized, pH 5; remark: listed apart in the source
Experimental: as §1
Target sequence in this assay (P15692 other isoform, or with tags, fused parts or gaps): as above

[6] = molecular target: T2, recombinant human VEGF121; assay: Biacore SPR, VEGF immobilized, pH 5
Experimental: as §1

[7] = molecular target: T3, recombinant human VEGF110; assay: Biacore SPR, VEGF immobilized, pH 5
Experimental: as §1

[8] = molecular target: T4, recombinant human VEGF165; assay: Biacore SPR, VEGF immobilized, pH 7.4
Experimental: as §1
Target sequence in this assay (P15692 other isoform, or with tags, fused parts or gaps): as above

[9] = molecular target: T4, recombinant human VEGF165; assay: VEGFR1/Fc competition ELISA on coated hVEGF165; ratio to Lucentis
Experimental: After 30-60 min of incubation at room temperature, the mixtures were transferred to the human VEGF₁₆₅ immobilized plate and incubated for 90 min. […] Optical density at 450 nm (OD 450 nm) was measured using a Sunrise microplate reader (Tecan). Data were analyzed as above, and EC₅₀ values were calculated from the dose-response curves of the scFvs.
Target sequence in this assay (P15692 other isoform, or with tags, fused parts or gaps): as above

[10] = molecular target: T4, recombinant human VEGF165; assay: cell-based or functional assay; remark: listed apart in the source
[11] = molecular target: T4, recombinant human VEGF165; assay: cell-based or functional assay; remark: listed apart in the source
[12] = molecular target: T4, recombinant human VEGF165; assay: Biacore SPR, VEGF immobilized, pH 5; remark: listed apart in the source
Experimental: as §1, with “1.1. […]” for “1.1.”
Target sequence in this assay (P15692 other isoform, or with tags, fused parts or gaps): as above

| Rel. activity in HUVEC assay (EC50Luc[nM]/EC50test[nM]) [1] | koff [2] [s⁻¹] | kon [2] [M⁻¹ s⁻¹] | koff [3] [s⁻¹] | kon [3] [M⁻¹ s⁻¹] | koff [4] [s⁻¹] | kon [4] [M⁻¹ s⁻¹] | binding result (recombinant human PLGF) | koff [5] [s⁻¹] | kon [5] [M⁻¹ s⁻¹] | koff [6] [s⁻¹] | kon [6] [M⁻¹ s⁻¹] | koff [7] [s⁻¹] | kon [7] [M⁻¹ s⁻¹] | koff [8] [s⁻¹] | kon [8] [M⁻¹ s⁻¹] | Rel. activity hVEGR1 comp. ELISA (EC50Luc[nM]/EC50test[nM]) [9] | Rel. activity in HUVEC assay (EC50Luc[nM]/EC50test[nM]) hVEGF [11] | koff [12] [s⁻¹] | kon [12] [M⁻¹ s⁻¹] | Binder | further results |
| --- | --- | --- | --- | --- | --- | --- | --- | --- | --- | --- | --- | --- | --- | --- | --- | --- | --- | --- | --- | --- | --- |
| 0.0009 | 0.0601 | 3.47e+07 | 0.0266 | 1.47e+07 | 0.00282 | 838000 | no binding | 0.00282 | 838000 | 0.00123 | 897000 | 0.00133 | 901000 | 0.0198 | 7.59e+06 | 0.09 | – | – | – | 509-maxII (scFv, VH tied by name; also called Protein Nr) scFv: EIVMTQSPSTLSASVGDRVIITCQASQNIRIWLSWYQQKPGKAPKLLIYKASTLESGVPSRFSGSGSGTEFTLTISSLQPDDFATYYCQNNAHYSTNGGTFGQGTKLTVLGGGGGSGGGGSGGGGSGGGGSEVQLVESGGGLVQPGGSLRLSCTASGFSLSSYYMSWVRQAPGKGLEWVGILDYVGDTDYASWAKGRFTISKDASKNTVYLQMNSLRAEDTAVYYCARTDDSRGWGLNIWGQGTLVTVSS | – |
| 0.0014 | – | – | – | – | 0.0173 | 1.88e+06 | – | – | – | – | – | – | – | 0.00262 | 1.06e+06 | – | – | – | – | 534-max (scFv, VL and VH tied by name; also called EP534max; Protein Nr; 793) scFv: EIVMTQSPSTLSASVGDRVIITCQASQSINIWLSWYQQKPGKAPKLLIYKESTLASGVPSRFSGSGSGTEFTLTISSLQPDDFATYYCQNNYDSGNNGFPFGQGTKLTVLGGGGGSGGGGSGGGGSGGGGSEVQLVESGGGLVQPGGSLRLSCTASGFSLSYYYMSWVRQAPGKGLEWVGIIGPGDYTDYASWAKGRFTISKDTSKNTVYLQMNSLRAEDTAVYYCARGDDNSGWGEDIWGQGTLVTVSS | EC50 in HUVEC assay (FIG. 8c) [10]: 0.0635 µM |
| 0.1 | 0.0151 | 1.4e+06 | 0.0182 | 1.7e+06 | 0.0103 | 1.14e+06 | no binding | 0.0103 | 1.14e+06 | 0.0088 | 961000 | 0.0104 | 915000 | 0.000202 | 1.11e+06 | 4.8 | 0.1 | 0.0103 | 1.14e+06 | 578-min (scFv, also called EP578 min; Protein Nr; 820) scFv: EIVMTQSPSTLSASVGDRVIITCQASEIIHSWLAWYQQKPGKAPKLLIYLASTLASGVPSRFSGSGSGAEFTLTISSLQPDDFATYYCQNVYLASTNGANFGQGTKLTVLGGGGGSGGGGSGGGGSGGGGSEVQLVESGGGLVQPGGSLRLSCAASGFSLTDYYYMTWVRQAPGKGLEWVSFIDPDDDPYYATWAKGRFTISRDNSKNTLYLQMNSLRAEDTAVYYCAKGDHNSGWGLDIWGQGTLVTVSS | EC50 in HUVEC assay (FIG. 8d) [10]: 0.00153 µM |
| 0.0011 | 0.00103 | 625000 | 0.00112 | 550000 | 0.00128 | 505000 | no binding | 0.00128 | 505000 | 0.000963 | 778000 | 0.000898 | 619000 | 0.000885 | 675000 | 0.7 | 0.0011 | 0.00128 | 505000 | 511-min (scFv, VL and VH tied by name; also called Protein Nr) scFv: EIVMTQSPSTLSASVGDRVIITCQASQSINIWCSWYQQKPGKAPKLLIYRASTLASGVPSRFSGSGSGAEFTLTISSLQPDDFATYYCQANYAYSAGYGAAFGQGTKLTVLGGGGGSGGGGSGGGGSGGGGSEVQLVESGGGLVQPGGSLRLSCAASGFSLNTYYMNWVRQAPGKGLEWVSIIAPDDTTYYASWAKSRFTISRDNSKNTLYLQMNSLRAEDTAVYYCAKSGDTTAWGADIWGQGTLVTVSS | – |
| 0.0179 | 4.61e-05 | 753000 | 6.63e-05 | 626000 | 4.4e-05 | 659000 | no binding | 4.4e-05 | 659000 | 9.97e-05 | 467000 | 7.96e-05 | 405000 | 6.85e-05 | 800000 | 8 | 0.0179 | 4.4e-05 | 659000 | 511-max (scFv, also called ESBA802) scFv: EIVMTQSPSTLSASVGDRVIITCQASQSINIWLSWYQQKPGKAPKLLIYRASTLASGVPSRFSGSGSGTEFTLTISSLQPDDFATYYCQANYAYSAGYGAAFGQGTKLTVLGGGGGSGGGGSGGGGSGGGGSEVQLVESGGGLVQPGGSLRLSCTVSGFSLNTYYMNWVRQAPGKGLEWVGIIAPDDTTYYASWAKSRSTISRDTSKNTVYLQMNSLRAEDTAVYYCARSGDTTAWGADIWGQGTLVTVSS | – |
